# Data reported in patent US20110306068A1 (HYGLOS INVEST, published 2011).
# T1: bacteriophage tail protein T4p12 (bacteriophage T4, UniProt P10930 1-527)
# T1 sequence (looked up): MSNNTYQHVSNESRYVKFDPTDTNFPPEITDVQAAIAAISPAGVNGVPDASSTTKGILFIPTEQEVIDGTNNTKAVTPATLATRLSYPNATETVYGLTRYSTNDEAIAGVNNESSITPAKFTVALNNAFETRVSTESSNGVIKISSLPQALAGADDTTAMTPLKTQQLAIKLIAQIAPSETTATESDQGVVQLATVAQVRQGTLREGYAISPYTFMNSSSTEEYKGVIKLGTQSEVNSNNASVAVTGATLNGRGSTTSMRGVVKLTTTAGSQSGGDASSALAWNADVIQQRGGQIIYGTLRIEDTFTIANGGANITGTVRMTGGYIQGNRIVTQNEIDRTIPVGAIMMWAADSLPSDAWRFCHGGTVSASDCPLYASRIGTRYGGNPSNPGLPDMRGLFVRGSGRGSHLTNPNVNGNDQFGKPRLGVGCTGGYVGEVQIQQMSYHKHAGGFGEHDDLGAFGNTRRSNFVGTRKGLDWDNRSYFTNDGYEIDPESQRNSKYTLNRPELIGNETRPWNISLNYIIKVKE
# Target: T1, bacteriophage tail protein T4p12
# Assay: column chromatography; Miro2p12 covalently immobilised on sepharose, control columns without LPS; T4p12 in fractions read by absorption at 280 nm
# Protocol: The amount of the bacteriophage tail protein p12 was plotted against the fractions of the chromatography run. […] The arrow marks the application of p12 onto the column. The fractions F2-F5 were collected after the application. The amount of p12 (stated in mg) was detected by absorption measurement at 280 nm. The fraction volume was 1 ml for fractions F1-F4 and 2 ml for fraction F5. The dissolution of bound T4p12 protein in fraction F5 was affected by addition of 2 mM EDTA to the running buffer (20 mM Hepes, 150 mM NaCl, 0.1 mM CaCl₂, pH 7.5). The bacteriophage tail protein T4p12 was retained at the columns prior loaded with endotoxin, while it elutes without delay through the columns containing no endotoxin.
# Bacteriophage tail protein Miro2p12 was immobilized to NHS-Sepharose (Amersham Pharmacia) (3.4 mg protein per 1 ml sepharose) and out of this 4 column were cast with a volume of 0.5 ml each. The columns were washed with each 3 ml sodium phosphate buffer (20 mM sodium phosphate, pH 12.0) and with each 3 ml regeneration buffer (20 mM Hepes, 150 mM NaCl, 2 mM EDTA, pH 7.5). […] The flow-through was collected three times in fractions of 1 ml and once of 2 ml and the concentrations of the bacteriophage tail protein T4p12 was determined via absorption measurement at 280 nm in these fractions (FIG. 5). […]
binder,measurement,value
"bacteriophage tail protein Miro2p12 (other, The only purification described is of the N-Strep form) MAQNNYNHYSDLAKYTIFDPTNTQWPVAIKDVQSALELIGSWARTDTGLPVASPTVAGVIRTATQAEVDAGTIGNAAVTPATLKSTVTRPEATTAVLGLTRYATNTEAAALTAGNRTITAAALGHVFKTVKAQENVDGTVRLTTAAQAQAGTDETTAVTPKRVVEMIGKFSVSPPSYTSATESNLGLVRVATQAQVAAGAVHDGYAVTPKTFMASKASDSVFGIVKFAKDSDVASATSNNLAVTPKSLQALKSTKDKYGLTRLSGSPTTDASLAAAATDAVFKTRRINGKTLDNDITITNNDINCYTRQESDGRYMPAGTRVGNVTWVEGQSWISRGATFTCNAPWEASSRLALNVNVKFERNNDGYDNRIFRFVVIVNGSQWGGELTLNIENTKGGRNGHSWRFEAYASSNFFFNNIPPNATVQIRPTEDSRIIFYDCMLTFCTNRP",binding result,no binding (tested: 0.5 ml of 0.844 mg/ml T4p12 applied)
